Test: yeast display, Sf9 membrane polyspecificity reagent, FACS + sequencing; frameworks hold sequencing errors
How it was run: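 After 36–48 hours of galactose induction, yeast (Saccharomyces cerevisiae BJ5465) displaying a synthetic nanobody library were stained at 4 °C for 1 hour with 10% biotinylated, detergent-solubilized Sf9 membrane reagent. Streptavidin microbeads enriched the stained cells before FACS sorting into low and high (top ~1%) gates on anti-HA and streptavidin fluorescence. Each clone's polyreactivity label reflects its gate of origin.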

Sequence | polyreactivity (PSR sort gate)
QVQLVESGGGLVQAGGSLRLSSAASGNIFKSYTMGWYRQAPGKERELVAAITSGGRTNYGDSVKGRFTISRDNAKNTVYLQMNSLKPEDTAVYYCNAYKVFWVSIRYKFDYWGQGTQVTVSS | high polyreactivity
QVQLVESGGGLVQAGGSLRLSSAASGRIFAYNAMGWYRQAPGKEREFVAAITLGTGRTYYADSVKGRFTISRDNAKNTDYLQMNSLKAEDTAVYYCAARRVRGDVDYWYIYDYWGQGTQVTVSS | high polyreactivity
QVQLVESGGGLVQAGGSLRLSSAASGRIFDANDMGWYRQAPGQERELVAVISSRGGSTYYADSVKGRFTISRDNAKNTVDLQMNSLKPEEAAVYYCAKGLSVAGYDYWGQGTQVTVSS | low polyreactivity
QVQLVESGGGLVQAGGSLRLSSAASGRIFIRNAMGWYRQAPGKERELVAAISWSGGRTYYADSVKGRFTISRDNAKNTVYLQMNSLKPEDTAVYYCAALRYAFQYGLSYYWGQGTQVTVSS | high polyreactivity
QVQLVESGGGLVQAGGSLRLSSAASGRIFKKNSMGWYRQAPGKERELVAAINWTGGSTYYADSVKGRFTISRDNAMNTVYLQLNSLKPEDTAFYYCAVGVYPSYRGPTFSTRRDYWGQGTQVTVSS | low polyreactivity
QVQLVESGGGLVQAGGSLRLSSAASGRIFKYYVMGWYRQAPGKEREFVAAISGRGGRTYYADSVKGRFTISRDNAKNTVYLQMNSLKPEDTAVYYCATERQDRGPLGYNYWGQGTQVTVSS | high polyreactivity
QVQLVESGGGLVQAGGSLRLSSAASGRIFRKYAMGWYRQAPGKERELVAAISGSGVSTYYADSVKGRFTISRDNAKNTVYLQMNSLKPEDTAVYYCNARIILRGYKSYRYDYWGQGTQVTVSS | high polyreactivity
QVQLVESGGGLVQAGGSLRLSSAASGRIFSINAMGWYSQAPGKERELVATISWRGGSTYYADSVKGRFTISRDNAKNTVYLQMNSLKPEDTAVYYCAAKYPYYSSYAYGYWGQGTQVTVSS | high polyreactivity
QVQLVESGGGLVQAGGSLRLSSAASGRIFTYYTMGWSRQAPGKERELVAAISARGGNTYYADSVKGRFTISRDNAKNTVYLQMNSLKPEDTAVYYCAAGWVTSRTYYTHQIRNPLDYWGQGTQVTVSS | high polyreactivity
QVQLVESGGGLVQAGGSLRLSSAASGRIFYGYTMGWYRQAPGKERELVAAITQSSGSTYYADSVKGRFTISRDNAKNTVYLQMNSLKPEDTAVYYCARDPGRRYSYTYDYWGQGTQVTVSS | low polyreactivity
QVQLVESGGGLVQAGGSLRLSSAASGRIFYLNAMGWYRQAPGIERELVAAINTSGDSTYYADSVKGRFTISRDNAKNTVYLQMNSLKPEDTEVYYCAAYVIGPDHFIYDYWGQGTQVTVSS | low polyreactivity
QVQLVESGGGLVQAGGSLRLSSAASGRILKYYAMGWYRQAPGKERELVAAIGSGGSTYYADSVKGRFTISRDNAKNTVYLQMNSLKPDDTAVYYCNAEDQWGGYGYDYWGQGTQLTVSS | low polyreactivity
QVQLVESGGGLVQAGGSLRLSSAASGRILPVNTMGWYRQAPGKERELVAVITRSGGRTYYADSVKGRFTISRDYAKNTVYLQMNSLKPEDTAVYYCAADVGFRWYRYTAGPLEYDYWGQGTQVTVSS | high polyreactivity
QVQLVESGGGLVQAGGSLRLSSAASGRILQFNAMGWYRQAPGKDRELVAAITSGGSTNYADSVKGRFTISRDNAKNTVYLQMNSLKPEVTAVYYCAAQSLLWQRRLRGYYYWGQGTQVTVSS | high polyreactivity
QVQLVESGGGLVQAGGSLRLSSAASGRISQNAIGWYRQAPGKERELVAAITFSGGSTYYADSVKGRFTISRDNAKNTVFLQMNSLKPEDTAVYYCAAEDRPLYWRFPDEMDYWGQGTQVTVSS | low polyreactivity
QVQLVESGGGLVQAGGSLRLSSAASGRLFGLNALGWYRQAPGKERELVASSTYSGGSTYYADSVKGRFTISRDNAKNTVYLQMNSLKQEDTAVYYCAGDSWYYWYSTYDYWGQGTQETVSS | high polyreactivity
QVQLVESGGGLVQAGGSLRLSSAASGRTFAYYAMGWYRQAPGKERELVAAISSAGRTYYADSVKGRFTISRDNAKNTVYLQMNSLKTEDTAVYYCAAEWYYYVIWLYEYWGQGTQVTVSS | high polyreactivity
QVQLVESGGGLVQAGGSLRLSSAASGRTFGRYAMGWYRQAPGKERELVAAITRSGSSTYYADSVKGRFTISRDNAKNTVYLQMNSLKPEDTAVYYCAALYGPFYSTGEYWGQGTQVTVSS | high polyreactivity
QVQLVESGGGLVQAGGSLRLSSAASGRTFGYNAMGWYRPATGKERELVAAISWSGARTYYADSVKGRFTISRDIAKNTVYLQLNSLTPEDTAVYYCAAGIDGYYWPFFRNYDYWGQGTQVTVSS | high polyreactivity
QVQLVESGGGLVQAGGSLRLSSAASGRTFLRYAMGWYRQAPGKVRELVAAISWSGGRTYYADSVKGRFRISRDLAKNTVYLQMNSLKTEVTAVYYCNKGVLYGAHFYYWGQGTQVTGSS | high polyreactivity
QVQLVESGGGLVQAGGSLRLSSAASGRTFPHYAMGWYRQAPGKERELVAAISSSGGSTYYADSVKGRFTISRDNAKNTVYLQMNSLKPEETAVYSCAARYVDDGWKYAYWGQGTQVTVSS | low polyreactivity
QVQLVESGGGLVQAGGSLRLSSAASGRTFRPNAMGGYRQAPGKERELVAGITRGGSTKYADSVKGRFTISRDNSKNTVYLQMNSLKPEDTAVYYCAVERGSYSYDRPFYYCGQGTQVTVSS | high polyreactivity

Sequence | polyreactivity (PSR sort gate)
QVQLVESGGGLVQAGGSLRLSSAASGRTFRWYTMGWYRQAPGKERELVAAISYSGGRTYYADSVKGRFTISRDNAKNTVYLQMNSLKPEDTAVYYCNKRGPSYWRYVETSEYYYWGQGTQVTVSS | high polyreactivity
QVQLVESGGGLVQAGGSLRLSSAASGRTFWVYAMGCYRQAPGKESELVAAISRSGVSTYYADSVMGRFTISRDNAKNTVYLQMNSLKPEDTAVYYCAAPLIYTPLKYHYWGQGTQVTVSS | low polyreactivity
QVQLVESGGGLVQAGGSLRLSSAASGRTFYKYAMGWYRQAPGKERELVAAISWNGGSTYYADSVKGRFTISRDNAKNTVYLQMNSLKPEDTAVYYCNVVNQRSRTGDYWGQGTQVTVSS | high polyreactivity
QVQLVESGGGLVQAGGSLRLSSAASGRTIDGNAMVWYRQAPGKEREWVATITRGGSTYYADSVKGRFTISRDNAKNTVYLQMNSLKPEDTSVYYCAARYYGRSQHHFDYWGQGTQVTVSS | high polyreactivity
QVQLVESGGGLVQAGGSLRLSSAASGRTLAGYAMGWYRQAPGKERELVAAISRSGGRTYYADSVKGRFTISRDNAKNSVYLQMNSLKPEDTAVYYCAADTRIEVYYWGQGTQVTVSS | high polyreactivity
QVQLVESGGGLVQAGGSLRLSSAASGSIFSTNEMGCYRQAPGKERELVAAISVSGGSTYYADSVKGRFTISRDNAKNTVYLQMNSLKPEDTALYYCNADYTRGTMYYWGQGTQVTVSS | low polyreactivity
QVQLVESGGGLVQAGGSLRLSSAASGSIFTYYAMGGYRQAPGKEREFVAGISWSGGRTYYADSVKARFTISRDNAKNTGYLQMNSLKPEDTAVYYCNRQYRYIPSPFDYGGQGTQVTVSS | low polyreactivity
QVQLVESGGGLVQAGGSLRLSSAASGSIFVRNAMGWYRQAPGKERELVAAITSRVGSTYYADSVKGRFTISRDNAKNTVYLQMNSLKPEDTAVYYCAVVFAKRAWSRYDYWGQGTQVTVSS | high polyreactivity
QVQLVESGGGLVQAGGSLRLSSAASGSIFYPYAMGWYRQAPGKARELVSTISWRGGSTYYADSVKGRFTISRDNAKNTDYVQMNRLKPEVTAVYYCAARKRPYSVINGMDYWGQGTQVTVSS | low polyreactivity
QVQLVESGGGLVQAGGSLRLSSAASGSIFYYYSMGWYRQAPGKERELVAAITRSGGSTYYADSVKGLFTISRDNAKNTVYLQMNSQKPEDTAVYYCAKDAHAYRDLDYWGQGTQVTVSS | low polyreactivity
QVQLVESGGGLVQAGGSLRLSSAASGSILYVYAMGWYRQAPGKERELVAVITSGGSTNYADSVKGRFTISRDNAKNTVYLQMNSLKPEDTAVYYCAADPYSVYGGDYWGQGTQVTVSS | low polyreactivity
QVQLVESGGGLVQAGGSLRLSSAASGSTFDYYAMGWYRQAPGKERELVAAISTSGSSTYYADSVKGRFTISGDNAKNTVYLQMNSLKPEDTAVYYCAAPIRYKGGYWGQGTQVTVSS | low polyreactivity
QVQLVESGGGLVQAGGSLRLSSAASGSTFLVYSMGWSRQAPGKERELVAAIRGAGSTNYADSVKGRFTISRDNAKNTVYLQMIRLKPEDTAVYYCAAYLLYTPSMDYWGQGTQVTVSS | low polyreactivity
QVQLVESGGGLVQAGGSLRLSSAASGSTFLYYAMGWYRQAPGKERELVATITDGGSTNYADSVKGRFTISRDNAKNTVYLQMNSLKPEDTAVYYCATDSYHYSYGYSSLPEYDYWGQGTQVTVSS | low polyreactivity
QVQLVESGGGLVQAGGSLRLSSAASGSTFLYYVMGWYRQARGKERELVAGITSRGASTYYADSVKGRFTFSRDNAKNTVYLQMNSLKPEDTAVYDCAKPGFTYPGRYNYWGQGTQVTVSS | high polyreactivity
QVQLVESGGGLVQAGGSLRLSSAASGSTFPNYAMGWYRQAPGKERELVAAITSSTGRTYYADSVKGRFTISRDTAKNSVYVPLHSLKPADTAVYYCNAEVYSDPYNDHDYWGQGTQVTVSS | low polyreactivity
QVQLVESGGGLVQAGGSLRLSSAASGSTFRFNAKGWYRQAPGKERELVARISTIGGNTFYADSVKGRFTISRDNAKNTVYLQMNSLKTEDTAVYYCATTGGPSCRKYVYWGQGTQVTVSS | high polyreactivity
QVQLVESGGGLVQAGGSLRLSSAASGSTFRKNAMGWYRQAPGKERELVASISISGGRTNYADSVKGRFTISRDNAKNTVYLQMNSLKPEDTAVYYCAKQVKSYRTRYTFDYWGQGTQVTVSS | high polyreactivity
QVQLVESGGGLVQAGGSLRLSSAASGSTFTFYAMGWYRQAPGKERELVATISWSTGTTYYADSVKGRFTISRDNAKNTVYLQMNSLKPEVTAVYYCAAPWSYRYDYWGQGTQVTVSS | low polyreactivity
QVQLVESGGGLVQAGGSLRLSSAASGSTFTSYAMGWYRQAPGNEWELVAAINSGGGTNYADSVKGRFTISRDNAKNTVYLQMNSLKPEDTAVYYCAKSRYDYTKTEGGYWGQGTQGTVSS | low polyreactivity
QVQLVESGGGLVQAGGSLRLSSAASGSTFWFNAMGWYRQAPVKERELVAGISERGGRTYYADSVKGRFTISRDNAKNTVYLQMNRLKPEDPAVYYSNAGISPRRTTYYKYDYWGQGTQVNVSS | high polyreactivity

From the nanobody polyreactivity screen of Harvey et al. (2022)
